For one variant, elution volume results are on record in paper PMC10675840, “Structure-function analysis of ceTIR-1/hSARM1 explains the lack of Wallerian axonal degeneration in C. elegans” (Cell reports, 2023).

To fix the notation:
B1: ceTIR-1^TIR (residues 703-872) [C. elegans] / itself (parent)
chain: MLSKQIDVFISYRRSTGNQLASLIKVLLQLRGYRVFIDVDKLYAGKFDSSLLKNIQAAKHFILVLTPNSLDRLLNDDNCEDWVHKELKCAFEHQKNIIPIFDTAFEFPTKEDQIPNDIRMITKYNGVKWVHDYQDACMAKVVRFITGELNRTTPTTKEMPSISRKTTQQR

This experiment covers variants of B1. Put plainly: gel filtration (size exclusion chromatography). The note with it: with itself. (In general: In gel filtration, larger molecules generally elute earlier.)
Consider chain 1 L27H, for which the elution volume was determined as 17.2 mL.
